According to patent US20240132578A1:

Legend:
[1] = target: HIV-1 envelope glycoprotein (Env) of isolate JR-FL, on pseudovirus (HIV-1); test: cell-based or functional assay
[2] = target: HIV-1 JR-CSF Env N295A (HIV-1 (isolate JR-CSF, clade B)) (UniProt P20871); test: cell-based or functional assay
[3] = target: HIV-1 JR-CSF Env T388A (HIV-1 isolate JR-CSF) (UniProt P20871); test: cell-based or functional assay
[4] = target: HIV-1 JR-CSF Env N332A (HIV-1 isolate JR-CSF) (UniProt P20871); test: cell-based or functional assay
[5] = target: HIV-1 JR-CSF Env Q337A (HIV-1 isolate JR-CSF) (UniProt P20871); test: cell-based or functional assay
[6] = target: HIV-1 JR-CSF Env K305A (HIV-1 (isolate JR-CSF, clade B)) (UniProt P20871); test: cell-based or functional assay
[7] = target: HIV-1 JR-CSF Env R327A (HIV-1 isolate JR-CSF) (UniProt P20871); test: cell-based or functional assay
[8] = target: HIV-1 JR-CSF Env D325A (HIV-1 isolate JR-CSF) (UniProt P20871); test: cell-based or functional assay
[9] = target: HIV-1 JR-CSF Env I309A (HIV-1 (isolate JR-CSF, clade B)) (UniProt P20871); test: cell-based or functional assay
[10] = target: HIV-1 JR-CSF Env T320A (HIV-1 (isolate JR-CSF, clade B)) (UniProt P20871); test: cell-based or functional assay
[11] = target: JR-FL GP120 ΔV3 (HIV-1 JR-FL); test: ELISA, antigen-coated wells, mAb titrated; EC50 by nonlinear regression
[12] = target: HIV-1 93IN905 envelope glycoprotein (Env) on pseudovirus (HIV-1); test: cell-based or functional assay
[13] = target: HIV-1 94UG103 envelope glycoprotein (Env) on pseudovirus (HIV-1); test: cell-based or functional assay
[14] = target: HIV-1 93UG077 envelope glycoprotein (Env) on pseudovirus (HIV-1); test: cell-based or functional assay
[15] = target: HIV-1 JR-CSF Env P299A (HIV-1 (isolate JR-CSF, clade B)) (UniProt P20871); test: cell-based or functional assay
[16] = target: HIV-1 JRCSF envelope glycoprotein (Env) on pseudovirus (HIV-1) (UniProt P20871); test: cell-based or functional assay
[17] = target: HIV-1 MGRM-D-018 envelope glycoprotein (Env) on pseudovirus (HIV-1); test: cell-based or functional assay
[18] = target: HIV-1 MGRM-C-026 envelope glycoprotein (Env) on pseudovirus (HIV-1); test: cell-based or functional assay
[19] = target: HIV-1 MGRM-D-001 envelope glycoprotein (Env) on pseudovirus (HIV-1); test: cell-based or functional assay
[20] = target: HIV-1 NL43 envelope glycoprotein (Env) on pseudovirus (HIV-1); test: cell-based or functional assay
[21] = target: HIV-1 MGRM-AG-005 envelope glycoprotein (Env) on pseudovirus (HIV-1); test: cell-based or functional assay
[22] = target: HIV-1 APV6 envelope glycoprotein (Env) on pseudovirus (HIV-1); test: cell-based or functional assay
[23] = target: HIV-1 CMU02 envelope glycoprotein (Env) on pseudovirus (HIV-1); test: cell-based or functional assay

In the case of 5145_B14 (PGT-127) (antibody), the IC50, pseudovirus neutralization [1] is reported as 0.029 µg/mL, the Fold IC50 increase relative to wild-type [2] is reported as 2.3 fold and the Fold IC50 increase relative to wild-type [3] is reported as 0.5 fold. For the same substance, the Fold IC50 increase relative to wild-type [4] was over 100 fold, the Fold IC50 increase relative to wild-type [5] was 0.5 fold and the Fold IC50 increase relative to wild-type [6] was 2.6 fold. The Fold IC50 increase relative to wild-type [7] was 1.8 fold, the Fold IC50 increase relative to wild-type [8] was 0.93 fold and the Fold IC50 increase relative to wild-type [9] was 6 fold. For the same substance, the Fold IC50 increase relative to wild-type [10] was 1.8 fold.
5343_B08 (PGT-135) (antibody) showed an EC50 [11] of 0.2 µg/mL, a Neutralization IC80 [12] of 0.0648 µg/mL and a Neutralization IC90 [12] of 0.136 µg/mL. For the same substance, the Neutralization IC95 [12] was 0.268 µg/mL, the neutralization IC50 [12] was 0.0183 µg/mL and the Neutralization IC80 [13] was over 10 µg/mL. It also gave a Neutralization IC90 [13] of over 10 µg/mL, a Neutralization IC95 [13] of over 10 µg/mL and a neutralization IC50 [13] of over 10 µg/mL. It also gave a Neutralization IC80 [14] of over 10 µg/mL, a Neutralization IC90 [14] of over 10 µg/mL and a Neutralization IC95 [14] of over 10 µg/mL. For the same substance, the neutralization IC50 [14] was over 10 µg/mL, the Fold IC50 increase relative to wild-type [2] was over 18 fold and the Fold IC50 increase relative to wild-type [3] was 0.1 fold. The Fold IC50 increase relative to wild-type [15] was 0.36 fold, the Neutralization IC80 [16] was 0.503 µg/mL and the Neutralization IC90 [16] was 1.47 µg/mL. It also gave a Neutralization IC95 [16] of 8.3 µg/mL, a neutralization IC50 [16] of 0.113 µg/mL and a Fold IC50 increase relative to wild-type [4] of over 250 fold. The Fold IC50 increase relative to wild-type [5] was 2.1 fold, the Fold IC50 increase relative to wild-type [7] was 0.67 fold and the Neutralization IC80 [17] was 0.2 µg/mL. It also gave a Neutralization IC90 [17] of over 10 µg/mL, a Neutralization IC95 [17] of over 10 µg/mL and a neutralization IC50 [17] of 0.0433 µg/mL. The Neutralization IC80 [18] was 0.0562 µg/mL, the Neutralization IC90 [18] was 0.139 µg/mL and the Neutralization IC95 [18] was 0.331 µg/mL. It also gave a neutralization IC50 [18] of 0.0123 µg/mL, a Neutralization IC80 [19] of over 10 µg/mL and a Neutralization IC90 [19] of over 10 µg/mL. For the same substance, the Neutralization IC95 [19] was over 10 µg/mL, the neutralization IC50 [19] was over 10 µg/mL and the Neutralization IC80 [20] was over 10 µg/mL. It also gave a Neutralization IC90 [20] of over 10 µg/mL, a Neutralization IC95 [20] of over 10 µg/mL and a neutralization IC50 [20] of 6.79 µg/mL. It also gave a Neutralization IC80 [21] of over 10 µg/mL, a Neutralization IC90 [21] of over 10 µg/mL and a Neutralization IC95 [21] of over 10 µg/mL. It also gave a neutralization IC50 [21] of over 10 µg/mL, a Neutralization IC80 [22] of over 10 µg/mL and a Neutralization IC90 [22] of over 10 µg/mL. The Neutralization IC95 [22] was over 10 µg/mL, the neutralization IC50 [22] was over 10 µg/mL and the Neutralization IC80 [23] was over 10 µg/mL. For the same substance, the Neutralization IC90 [23] was over 10 µg/mL, the Neutralization IC95 [23] was over 10 µg/mL and the neutralization IC50 [23] was over 10 µg/mL.
